These results are taken from the RNAGym collection of RNA variant scans (doi:10.1093/molbev/msab373).

To fix the notation:
B1: Azoarcus group I ribozyme (parent)
chain: GUGCCUUGCGCCGGGAAACCACGCAAGGGAUGGUGUCAAAUUCGGCGAAACCUAAGCGCCCGCCCGGGCGUAUGGCAACGCCGAGCCAAGCUUCGGCGCCUGCGCCGAUGAAGGUGUAGAGACUAGACGGCACCCACCUAAGGCAAACGCUAUGGUGAAGGCAUAGUCCAGGGAGUGGCGAAAGUCACACAAACCGG

This data set covers variants of B1. Briefly: reverse-splicing fitness (ratio to wild type); higher = more active; in vitro selection; Mg2+ level not given. The essentials:
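An in vitro group I ribozyme library with randomized positions was T7-transcribed and gel-purified. In triplicate, 10 pmol RNA in EPPS pH 7.5 was reacted with 50 pmoles of a 30-nt RNA substrate for 1 h at 37 °C across several added MgCl2 levels (1–48 mM), then stopped with EDTA. Products were reverse transcribed from a substrate-complementary primer, PCR-amplified and sequenced (HiSeq 4000). Fitness is a variant's read proportion after selection over that before, normalised to wild type.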
For C82G A111G A120G A145U C150A C169G U176C, the reverse-splicing fitness came to 0.0174.
Then C82G A111G A120U A145G C150G C169G U176G, with 0.00372; and C82G A111G A120U A145G C150G C169G U176A, with 0.00894; and C82G A111G A120U A145G C150G C169G U176C, with 0.00607.
Then C82G A111G A120U A145G C150G C169U U176A, with 0.00708.
Then C82G A111G A120U A145G C150G C169U U176G, with 0.00375; and C82G A111G A120U A145G C150G C169U U176C, with 0.009; and C82G A111G A120G A145U C150U, with 0.0155.
Turning to C82G A111G A120G A145U C150A, the reverse-splicing fitness is 0.00906.
Then C82G A111G A120G A145U C150G, with 0.00774; and C82G A111G A120U A145G C169A U176C, with 0.00535; and C82G A111G A120U A145G C169A U176G, with 0.00176.
As for C82G A111G A120U A145G C169A U176A, the figure is 0.00574; as for C82G A111G A120G A145G C150A C169G, 0.0102.
As for C82G A111G A120G A145G C150A C169A, the figure is 0.0113; as for C82G A111G A120G A145G C150A C169U, 0.0102.
For C82G A111G A120U A145G C150A C169U U176A, the reverse-splicing fitness is 0.00563.
As for C82G A111G A120U A145G C150A C169U U176C, the figure is 0.00452; as for C82G A111G A120U A145G C150A C169U U176G, 0.00259.
Then C82G A111G A120U A145C C169U U176A, with 0.00244.
As for C82G A111G A120U A145C C169U U176G, the figure is 0.00131; as for C82G A111G A120U A145C C169U U176C, 0.00228; as for C82G A111G A120G C169G U176G, 0.00487.
In the case of C82G A111G A120G C169G U176A, the reverse-splicing fitness stood at 0.0194.
On to C82G A111G A120G C169G U176C, for which the reverse-splicing fitness was found to be 0.0232.
Then C82G A111G A120U A145G C150G C169U, with 0.00737; and C82G A111G A120U A145G C150G C169A, with 0.00921.
As for C82G A111G A120U A145G C150G C169G, the figure is 0.00722; as for C82G A111G A120G A145G C150U C169A U176A, 0.0163; as for C82G A111G A120G A145G C150U C169A U176G, 0.00616.
As to C82G A111G A120G A145G C150U C169A U176C, the reverse-splicing fitness was 0.0177.
Then C82G A111G A120G A145U C150A C169A U176A, with 0.0175; and C82G A111G A120G A145U C150A C169A U176G, with 0.00495; and C82G A111G A120G A145U C150A C169A U176C, with 0.0159.
Then C82G A111G A120U A145G C150A C169A U176G, with 0.00251.
As for C82G A111G A120U A145G C150A C169A U176C, the figure is 0.00503.
C82G A111G A120U A145G C150A C169A U176A: the reverse-splicing fitness turned out to be 0.00843.
On to C82G A111G A120G A145C C169G U176C, for which the reverse-splicing fitness was 0.0207.
For C82G A111G A120G A145C C169G U176A, the reverse-splicing fitness was determined as 0.0262.
As for C82G A111G A120G A145C C169G U176G, the figure is 0.00483; as for C82G A111G A120G A145U U176C, 0.0242.
Regarding C82G A111G A120G A145U U176A, the reverse-splicing fitness worked out at 0.0167.
Then C82G A111G A120G A145U U176G, with 0.00543.
Then C82G A111G A120U A145C C150U C169G U176C, with 0.0031; and C82G A111G A120U A145C C150U C169G U176A, with 0.00296; and C82G A111G A120U A145C C150U C169G U176G, with 0.00185.
Then C82G A111G A120U A145C C150U U176A, with 0.00647.
With C82G A111G A120U A145C C150U U176C, the reverse-splicing fitness turned out to be 0.00541.
Then C82G A111G A120U A145C C150U U176G, with 0.00303.
Then C82G A111G A120G C150A C169U U176A, with 0.021; and C82G A111G A120G C150A C169U U176G, with 0.00912; and C82G A111G A120G C150A C169U U176C, with 0.0176.
Consider C82G A111G A120U A145G C150G, for which the reverse-splicing fitness is 0.0102.
As for C82G A111G A120U A145G C150A, the figure is 0.0116.
As for C82G A111G A120U A145G C150U, the figure is 0.0498; as for C82G A111G A120G A145U C169G U176G, 0.0044.
Then C82G A111G A120G A145U C169G U176C, with 0.0187.
On to C82G A111G A120G A145U C169G U176A, for which the reverse-splicing fitness is 0.0149.
As for C82G A111G A120G A145U C150U C169U U176C, the figure is 0.0182; as for C82G A111G A120G A145U C150U C169U U176G, 0.00452; as for C82G A111G A120G A145U C150U C169U U176A, 0.0186.
Turning to C82G A111G A120G A145G C150A U176C, the reverse-splicing fitness stood at 0.0232.
Then C82G A111G A120G A145G C150A U176A, with 0.0107.
As for C82G A111G A120G A145G C150A U176G, the figure is 0.0096; as for C82G A111G A120G A145G C150G C169A U176G, 0.00881; as for C82G A111G A120G A145G C150G C169A U176C, 0.0138.
As for C82G A111G A120G A145G C150G C169A U176A, the figure is 0.0146; as for C82G A111G A120U A145G C169G U176A, 0.00491; as for C82G A111G A120U A145G C169G U176G, 0.00184.
On to C82G A111G A120U A145G C169G U176C, for which the reverse-splicing fitness came to 0.00531.
As for C82G A111G A120U A145C C150U C169U U176C, the figure is 0.00268.
As for C82G A111G A120U A145C C150U C169U U176A, the figure is 0.00258; as for C82G A111G A120U A145C C150U C169U U176G, 0.00214.
Then C82G A111G A120G C150A C169U, with 0.00799; and C82G A111G A120G C150A C169A, with 0.0123.
As to C82G A111G A120G C150A C169G, the reverse-splicing fitness amounted to 0.0105.
Then C82G A111G A120G A145C C169G, with 0.0204; and C82G A111G A120G A145C C169A, with 0.0114.
Then C82G A111G A120G A145C C169U, with 0.0132.
Then C82G A111G A120G A145C U176G, with 0.0063; and C82G A111G A120G A145C U176C, with 0.0181; and C82G A111G A120G A145C U176A, with 0.0154.
Turning to C82G A111G A120U, the reverse-splicing fitness is 0.0726.
Then C82G A111G A120G A145G C150U U176C, with 0.0189.
